Data reported in paper PMC6451138 (Nucleic Acids Research, 2019).

Experiments:
[1] = target: AtmtSSB2 (Arabidopsis thaliana); experiment: SEC
[2] = target: exonuclease deficient AtPolIB (AtPolIB exo-) (Arabidopsis thaliana); experiment: SEC-MALS
[3] = target: AtmtSSB1 (Arabidopsis thaliana); experiment: SEC
[4] = target: exonuclease deficient AtPolIB (AtPolIB exo-) (Arabidopsis thaliana); experiment: MST
[5] = target: the molecule itself; experiment: SEC
[6] = target: T1, AtmtSSB1 (Arabidopsis thaliana, UniProt Q84J78 33-201); experiment: fluorescence anisotropy
T1 sequence: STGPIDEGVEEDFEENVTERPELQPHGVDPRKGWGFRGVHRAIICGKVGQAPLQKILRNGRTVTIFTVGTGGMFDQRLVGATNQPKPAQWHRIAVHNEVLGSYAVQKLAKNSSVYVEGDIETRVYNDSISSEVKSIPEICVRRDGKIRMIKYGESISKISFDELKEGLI

[7] = target: T1, AtmtSSB1; experiment: fluorescence anisotropy; remark: listed apart in the source

## AtmtSSB2 (natural protein)
[1]
  stoichiometry N: 4

## exonuclease deficient AtPolIB (AtPolIB exo-) (enzyme)
[2]
  stoichiometry N: 2

## AtmtSSB1 (natural protein)
[3]
  stoichiometry N: 4
[4]
  Kd: 1480 nM

B1: AtWhirly2 (natural protein, Arabidopsis thaliana, UniProt Q8VYF7 30-238, looked up)
chain: ASWSNSSTPGRGFPGKDAAKPSGRLFAPYSIFKGKAALSVEPVLPSFTEIDSGNLRIDRRGSLMMTFMPAIGERKYDWEKKQKFALSPTEVGSLISMGSKDSSEFFHDPSMKSSNAGQVRKSLSVKPHADGSGYFISLSVNNSILKTNDYFVVPVTKAEFAVMKTAFSFALPHIMGWNRLTGHVNTEALPSRNVSHLKTEPQLELEWDK
[4]
  Kd: > 250000 nM
[5]
  stoichiometry N: 4

B2: AtOSB2 (natural protein, Arabidopsis thaliana, UniProt Q8GXH3 21-371, looked up)
chain: ASEITTGKRITSPQIRLYTAAAVGGKTGNGERKQRAKAPAKTPEAVTPVKPLEIASVTATTENELPRPNEIAYESEVANWVNLIGFVDQPVQFEASSDGKFWAGTVISQRSASDSSGFWIPIIFEGDLAKTAARYVSKDDQIHVSGKLFIDSPPPNMTYAQANVQVLVQNLNFIQPMSPSPSPFMVMSSSEKEESGIKKQPARAKQDIVIDEASDSWNHLIENPKEWWDHRENKVNGLVKPRHPDFKSKDSSFSLWLNKAPNWVLPKLEGLEFDVLVPKARVVKQLKGEESWKDLVQNPDKWWDNRIDKRNAKAPDFKHKETGEALWLNESPTWVLPKLPPVKKKQESIVF
[5]
  stoichiometry N: 4

B3: AtOSB3 (natural protein, Arabidopsis thaliana, UniProt Q8GWJ4 62-440, looked up)
chain: VATEKESTPPKKIEYKPEISNWINLIGFVEQPVQFGPCSDGKFWAGTVISQRSGSKSSNFWIPIIFEGDLAKIAVQHVKKEDRIHVSGKLFIDSPPPNVTYSQSNVQVMVQNLNFVQAATSTTKTISPPEKEVTSIKKKPARSKKVKVIDEETSNSWKHLIENPKEWLDHRGNKANGLVKPGHPDFKMKVGGLSLWLSTAPDWALLKLEELKFDVLVPKGNIKLNQLKGEESWKDLVQNPDKWLDNRSDKTNVKYPDFKHKETGEALWMTNSPIWVLSKLPPLKKNQERPFMSNKVSQLELDVEVPKGNLKQLKREEIWKNLVENPSKWWDNRLDKRNPKGPDFKHKETGEALWIGDSPTWALSKLPPLKKNQERPVMA
[5]
  stoichiometry N: 4

B4: pssDNA-10 (Cy3) (mixed)
DNA 1: AACACTGTGAGCTTAGAGCCCCGGGG
DNA 2: CTAAGCTCACAGTGTT
[6]
  binding result: no binding

## TTTTTTTTTTTTTTTTTTTTTTTTTTTTTTTTTTTTTTTTTTTTT (ssDNA) [ssDNA(45), Poly-T 45]
[7]
  Kd: 62.8 ± 3.6 nM
